This passage reports interaction as percent of that of DNAJB14-FL and fold lower interaction than with DNAJB14-FL results from article PMC8792056 (2022).

Test [1] has as its target DNAJB14-ΔDUF, FLAG-tagged (human). The test can be described thus: co-IP; HEK293T cells transfected with FLAG-tagged chaperone (DNAJB12 isoforms alone or with HTT-134Q-GFP or HTT-17Q-GFP; DNAJB14 forms also in cells expressing FUS-WT-YFP or FUS-R521H-YFP), lysed 48 h later in 50 mM HEPES pH 7.9, 0.5% Triton X-100, 5% glycerol, 150 mM NaCl, 2 mM EDTA; anti-FLAG M2 beads 3 h at 4 °C, 7 washes; blot with anti-HSC70/HSP70 for endogenous HSP70.

Test [2] has the same target. The test can be described thus: co-IP; HEK293T cells co-transfected with FLAG-tagged DNAJB14 forms and DNAJB12-FL-mOrange; lysis in 50 mM HEPES pH 7.9, 0.5% Triton X-100, 5% glycerol, 150 mM NaCl, 2 mM EDTA; anti-FLAG M2 beads 3 h at 4 °C, 7 washes; blot with anti-RFP for mOrange, normalised to the FLAG band.

As to “HSP70 (from UniProt P0DMV8 1-641) (natural protein)”, the interaction as percent of that of DNAJB14-FL in test [1] is 50%.

B1: DNAJB12-FL-mOrange (natural protein)
chain: MESNKDEAERCISIALKAIQSNQPDRALRFLEKAQRLYPTPRVRALIESLNQKPQTAGDQPPPTDTTHATHRKAGGTDAPSANGEAGGESTKGYTAEQVAAVKRVKQCKDYYEILGVSRGASDEDLKKAYRRLALKFHPDKNHAPGATEAFKAIGTAYAVLSNPEKRKQYDQFGDDKSQAARHGHGHGDFHRGFEADISPEDLFNMFFGGGFPSSNVHVYSNGRMRYTYQQRQDRRDNQGDGGLGVFVQLMPILILILVSALSQLMVSSPPYSLSPRPSVGHIHRRVTDHLGVVYYVGDTFSEEYTGSSLKTVERNVEDDYIANLRNNCWKEKQQKEGLLYRARYFGDTDMYHRAQKMGTPSCSRLSEVQASLHG
Regarding B1, the fold lower interaction than with DNAJB14-FL in test [2] came out at 3 fold.
